Assay results taken from publication PMC9428852, “The N-linker region of hERG1a upregulates hERG1b potassium channels” (The Journal of Biological Chemistry, 2022).

Biological target: T1, 6xHis-hERG1a N1–354-FLAG (human, UniProt Q12809 1-354)
T1 construct: Plasmid made commercially (BioInnovatise); also called hERG1a N-terminal region; source: bacteria, M15 cells, purified (nickel column); not shown: His6, N-terminal, kept; FLAG, C-terminal, kept
Assay: pull-down; GST or GST fusion protein bound to glutathione beads, incubated with 6xHis fusion protein in buffer S (50 mM Tris pH 8, 150 mM NaCl, 25 mM imidazole, 0.25% Tween-20) with 0.5% CHAPS, overnight at 4 °C; washed; Western blot with anti-FLAG
Details: both partners purified

T1 sequence (Q12809 1-354): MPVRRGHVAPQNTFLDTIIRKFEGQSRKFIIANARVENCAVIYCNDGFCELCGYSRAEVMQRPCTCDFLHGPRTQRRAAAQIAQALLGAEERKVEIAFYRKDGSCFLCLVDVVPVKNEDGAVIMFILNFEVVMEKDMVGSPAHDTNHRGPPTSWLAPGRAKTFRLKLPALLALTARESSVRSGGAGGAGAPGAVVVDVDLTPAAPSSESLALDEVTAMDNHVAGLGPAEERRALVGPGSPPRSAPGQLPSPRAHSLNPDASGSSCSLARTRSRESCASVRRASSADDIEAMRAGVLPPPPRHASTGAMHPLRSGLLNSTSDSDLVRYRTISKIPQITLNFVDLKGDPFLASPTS

B1: GST-hERG1b N1–56 (domain or fragment, human, UniProt Q12809-2 1-56, looked up)
chain: MAAPAGKASRTGALRPRAQKGRVRRAVRISSLVAQEVLSLGADVLPEYKLQAPRIH
notes: hERG1b (KCNH2 isoform 1b), human, N-terminal region residues 1-56; numbers count on: hERG1b; Plasmid made commercially (BioInnovatise); also called hERG1b N-terminal region; GST–hERG1b N-terminal region; not shown: GST, N-terminal, kept
B1: binds.
